Measured values reported in the RNAGym collection of RNA variant scans (doi:10.1073/pnas.2313332121).

B1: TPR t1 (parent)
chain: GACCAAUCUGCCCUCAGAGCUCGAGAACAUCUUCGGAUGCAGAGGAGGCAGGCUUCGGUGGCGCGAUAGCGCCAACGUCCUCAACCUCCAAUGCAUCCCACCACAUGAUGAUGCCUGAAGAGCCUUGGUUUUUUG

Variants of: B1
Assay: polymerase ribozyme fitness, log enrichment relative to wild type (log ratio); higher = more active; in vitro selection for triplet polymerase activity
How it was run: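 Only genotypes with ≥10 input reads and ≥1 read per output were kept after Illumina sequencing of input and output libraries. These libraries were PCR-built, transcribed mutants of each subunit of a heterodimeric triplet polymerase ribozyme, each put through one triplicate in vitro selection round with frozen incubation at −7 °C, gel excision of extended constructs, streptavidin-bead capture and RT-PCR. Fitness is a logarithmic ratio of genotype enrichment to wild-type enrichment, from inverse-variance-weighted replicate averages, with the logarithm in base 2.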
For GACCAAUCUGCCCUCAGAGCUCGAGAACGUCUUCGGAUGCAGAGGAGGCAGGCUUGGGUGGCGCGAUAGCGCCAACGUCCUCAACCUCCACUGCAUCCCACCACAUGAUGAAGCCUGAAGGCCCUUGGUUUUUUG [A29G C56G A91C U112A A121G G122C], the “polymerase ribozyme fitness (log ratio)” value was -2.1.
With GACCAAUCGGCCCUCAGAGCUCGAGAACAUCUUCGGAUCCAUAGGAGGCAGGCUUCGGUGGCGUGAUAGCGCCAACGUCCUCAACCUCCAAUGCAUCCCACCACAUGAUGAUGCCUGAAGAGCCUUGGUUUUUUG [U9G G39C G42U C64U] the “polymerase ribozyme fitness (log ratio)” value was -2.
In the case of GAUCAAUCUGCCCUCAGAGCUCGAGAACAUCUUCGAAUGCAGAGGAGGCCGGCUUCGGUGGCGCGAUAGCGCCAACGUCCUCAACCUCCAAUGCAUCCCACCACAUGAUGAUGCCUGAAUAGCCUUGGUUUUUUG [C3U G36A A50C G120U], the “polymerase ribozyme fitness (log ratio)” value is reported as -1.14.
In the case of GACGAAUCAGCCCUCAGAGCUCGAGAACAUCUUCGGAUGCAGAGGAGGCAGGCUUCGGUGGCGCGAUAGCGCCAACGCCCUCAACCGCCAAUGCAUCCCACCAAAUGAUGAUGCCUGAAGAGUCUUGGUUUUUUG [C4G U9A U78C U87G C104A C123U], the “polymerase ribozyme fitness (log ratio)” value is reported as -2.05.
In the case of GACCAAUCUGCCCUCAGAGCUCGAGAACAUCUUCGGAUGCAGAGGAGGCAGACUUCCGUGGCGCGAUAGCGCCAACGUCCUCAACCUCCAAUGCAUCCCACCACAUGAUGAUGCCUGAAGAGCCUUGGUUUUUUG [G52A G57C], the “polymerase ribozyme fitness (log ratio)” value is reported as -0.388.
With GACCAAUCUGCCCUCAGAGCUCGAGAACAUCUUCGGAUGCAGAGGAGGCAGGCGUCGGUGGCGCGAUAGCGCCAACGUCCUCAACCUCCAAUGCCUCCCACCACAUGAUGAUGCCUGAAGAGCCUUGGUUUUAUG [U54G A95C U133A] the “polymerase ribozyme fitness (log ratio)” value was -1.48.
For GACCAAUCUGCCCUCAGAGCUCGAGAACAUCUUCGGAUGCAGAGGAGGCAGGCUUUGGUGGCGCGAUAGCGCCAACGUCCUCAACCUCCAAUGCAUCCCACCACAUGAUGAUGCCUGAAGAGCCUUGGUUAUUUG [C56U U131A], the “polymerase ribozyme fitness (log ratio)” value was -0.176.
With GACCAAUCUGCCCUCAGAGCUCGAGAACAUCUUCGGAUGCAGAGGAGGCAGGUUUCGGUGGUGCGAUAGCGCCAACGUCCUCAACCUCCAAUGCAUCCCACCACAUGAUGUUGCCUGUAGAGCCUUGGUUUUUUA [C53U C62U A111U A118U G135A] the “polymerase ribozyme fitness (log ratio)” value was -3.23.
For GACCAAUGUUCCCUCCGAGCUCGAGAACAUCUUCGGAUGCAGAGGAGGCAGGCUUCGGUGGCGCGAUAGCGCCAACUUCCACAAACUCCAAUGCAUCCCACCACAUGAUGAUGCCUGAAGAGCCUUGGUUUUUUG [C8G G10U A16C G77U U81A C85A], the “polymerase ribozyme fitness (log ratio)” value was -3.62.
With GACCAAUCUGCCCUCAGAGCUCGAGAACAUCUUCGGAUGCAGAGGUGGCAGGCUUCGGUGGGGCGAUAGCGCCAACGUCCUCAACCUCCAAUGCAUCCCACCACAUGAUGAUGCCUGAAGAGCCUUGGUUUUUUG [A46U C62G] the “polymerase ribozyme fitness (log ratio)” value was -3.18.
For GACCAAUCUGCCUUCAGAGCUCGAGAACAUCUUCGGAUUCAGAGGAGGCAGGCUUCGGUGGCGCGAUAGCGCAAACGUCCUCUACCUCCAAUGCAUCCCACCACAUGAUGAUGCCUGAAGUGCCUUGGUUUUUUG [C13U G39U C73A A83U A121U], the “polymerase ribozyme fitness (log ratio)” value was 1.24.
For GACCAAUCUGCCCUCAGAGCUCGAGAAGAUCUUCGGAUGUAGAGGAGGCAGGCUUCUGUGGCCCGAUAGCGCCAACGUCCUCAACCUCCAAUGCAUCCCACCACAUGAUGAUGCCUGAAGAGCCUUGGUUUUUUG [C28G C40U G57U G63C], the “polymerase ribozyme fitness (log ratio)” value was -4.66.
For GACCAACCUGCCCUCAGAGCUCGAGAACAUCUUCGGAUGCAGAGGAGGCAGGCUUAGGUGGCGCGAUAGCGCCAACGUCCUCAACCUCCAAUGCAUCCCACCACAUGAUGAUGCCUGAAGAGCCUUGGUUUUUUU [U7C C56A G135U], the “polymerase ribozyme fitness (log ratio)” value was -1.85.
In the case of GACCAAUCGGCCCUCAGAGCUCGAGAACAUCUUCGGAUGCAGAGGAGGCAGGCUUCGGUGGCGCGAUAGCGCCAACGUCCUCAACCUCCAAUGCAUCCCACCACAUGAUGAUGCCUGAAGAGGCUUGGUUUUUUG [U9G C123G], the “polymerase ribozyme fitness (log ratio)” value is reported as 1.31.
In the case of GACCAAUCUGACCUCAGAGCUCGAGAACAUCUUCGGCUGCAGAGGAGGCAGGCCUCGGUGGCGCGAUAGCGCCAACGUCCUCAACCUCCAAUGCAUCCCACCACAUGAUGAUGCCUGAAGAGCCUUGGUUUUUUG [C11A A37C U54C], the “polymerase ribozyme fitness (log ratio)” value is reported as -2.16.
With GACCAAUCUGCCCUCAGAGCUCGAGAAAAUCUUCGGAUGCAGAGGAGGCAGGCUUCGGUGGCGCGAUAGCCCCAACGUCCUCAACCUCCAAUGCAUCCCACCACAUGAUGAUGCCUGAAGAGCCUUGGUUUUUUG [C28A G71C] the “polymerase ribozyme fitness (log ratio)” value was -5.69.
In the case of GACCAAUCUGCCCUCAGAGCUCGAGAACAUCUUCGGAUGCAGAGGAGGCAGGCUUCGGUGGCGCGAUAGCGCCAACGUCCUCAACCUCCAAUGCAUCCCACCACAUGAUGAUCCCUGAAGAGCUUUCGUUUUUUG [G113C C124U G127C], the “polymerase ribozyme fitness (log ratio)” value is reported as -3.7.
For GAGCAAUCUGCCCUCAGAGCUCGAGAACAUCUUCGGAUGCAGAGGAGGUAGGCUUCGGUGGCGCGAUAGCGCCAACGACCUCAACCUCCAAUGCAUCCCACCACAUGAUGAUGCAUGAAGAGCCUUGGUUUUUUG [C3G C49U U78A C115A], the “polymerase ribozyme fitness (log ratio)” value was -3.75.
With GACCAAUCUGCCCUCGGAGCUCGAGAACAUCUUCGGAUGCAGAGGAGGCAGGCUUCGGUGGCGCGAUAGCGCAAACGUCCUCAACCUCCCAUGCAUCCCACCACAUGAUGAUGCCUGAAGAGCCUUGGUUUUUUG [A16G C73A A90C] the “polymerase ribozyme fitness (log ratio)” value was -3.02.
In the case of GACCAAUCUGCCCUCAGAGCUCGAGAACAUCUUCGGAUGCAUAGUAGGCAGGCUUCGGUGGCGCGAUAGCGCCAACGUCCUCAACCUGCGAUGCAUCCCACCACAUGAUGAUGCCUGAAGAGCCUUGGUUUUUUG [G42U G45U C88G A90G], the “polymerase ribozyme fitness (log ratio)” value is reported as -1.09.
For GACCAAUCUGCCCUCAGAGCUCGAGAACAUCUUCGGAUGCAGAGGAGGCAGCCUUCGGUGCCGCGAUAGCGCCAACGUCCUCAACCUCCAAUGCAUCCCACCACAUGAUGAUGGCUGAAUAGCCUUGGUUUUUUG [G52C G61C C114G G120U], the “polymerase ribozyme fitness (log ratio)” value was -5.46.
